The source of these data is IntAct's records for PubMed 19407143.

The labels stand for the following.
B1: Protein phosphatase 2C 56 (Arabidopsis thaliana (Mouse-ear cress)), P49597 (parent)
chain: MEEVSPAIAGPFRPFSETQMDFTGIRLGKGYCNNQYSNQDSENGDLMVSLPETSSCSVSGSHGSESRKVLISRINSPNLNMKESAAADIVVVDISAGDEINGSDITSEKKMISRTESRSLFEFKSVPLYGFTSICGRRPEMEDAVSTIPRFLQSSSGSMLDGRFDPQSAAHFFGVYDGHGGSQVANYCRERMHLALAEEIAKEKPMLCDGDTWLEKWKKALFNSFLRVDSEIESVAPETVGSTSVVAVVFPSHIFVANCGDSRAVLCRGKTALPLSVDHKPDREDEAARIEAAGGKVIQWNGARVFGVLAMSRSIGDRYLKPSIIPDPEVTAVKRVKEDDCLILASDGVWDVMTDEEACEMARKRILLWHKKNAVAGDASLLADERRKEGKDPAAMSAAEYLSKLAIQRGSKDNISVVVVDLKPRRKLKSKPLN
partner: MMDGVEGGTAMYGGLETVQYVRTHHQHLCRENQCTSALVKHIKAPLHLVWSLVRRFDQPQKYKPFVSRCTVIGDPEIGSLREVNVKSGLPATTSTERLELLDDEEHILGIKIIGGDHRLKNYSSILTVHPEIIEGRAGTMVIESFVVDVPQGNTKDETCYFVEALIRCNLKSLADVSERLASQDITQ
B2: Protein phosphatase 2C 77 (Arabidopsis thaliana (Mouse-ear cress)), O04719 (parent)
chain: MDEVSPAVAVPFRPFTDPHAGLRGYCNGESRVTLPESSCSGDGAMKDSSFEINTRQDSLTSSSSAMAGVDISAGDEINGSDEFDPRSMNQSEKKVLSRTESRSLFEFKCVPLYGVTSICGRRPEMEDSVSTIPRFLQVSSSSLLDGRVTNGFNPHLSAHFFGVYDGHGGSQVANYCRERMHLALTEEIVKEKPEFCDGDTWQEKWKKALFNSFMRVDSEIETVAHAPETVGSTSVVAVVFPTHIFVANCGDSRAVLCRGKTPLALSVDHKPDRDDEAARIEAAGGKVIRWNGARVFGVLAMSRSIGDRYLKPSVIPDPEVTSVRRVKEDDCLILASDGLWDVMTNEEVCDLARKRILLWHKKNAMAGEALLPAEKRGEGKDPAAMSAAEYLSKMALQKGSKDNISVVVVDLKGIRKFKSKSLN
partner: B1 partner

Variants of B1 are the subject of the first assay. The settings on record: with pyl9_arath PYL9, Q84MC7.
On to MEEVSPAIAGPFRPFSETQMDFTGIRLGKGYCNNQYSNQDSENGDLMVSLPETSSCSVSGSHGSESRKVLISRINSPNLNMKESAAADIVVVDISAGDEINGSDITSEKKMISRTESRSLFEFKSVPLYGFTSICGRRPEMEDAVSTIPRFLQSSSGSMLDGRFDPQSAAHFFGVYDGHDGSQVANYCRERMHLALAEEIAKEKPMLCDGDTWLEKWKKALFNSFLRVDSEIESVAPETVGSTSVVAVVFPSHIFVANCGDSRAVLCRGKTALPLSVDHKPDREDEAARIEAAGGKVIQWNGARVFGVLAMSRSIGDRYLKPSIIPDPEVTAVKRVKEDDCLILASDGVWDVMTDEEACEMARKRILLWHKKNAVAGDASLLADERRKEGKDPAAMSAAEYLSKLAIQRGSKDNISVVVVDLKPRRKLKSKPLN [G180D], for which the “effect of a mutation on the interaction” value was “decreasing interaction”.

Variants of B2 are the subject of a further assay. The settings on record: with pyl9_arath PYL9, Q84MC7.
On to MDEVSPAVAVPFRPFTDPHAGLRGYCNGESRVTLPESSCSGDGAMKDSSFEINTRQDSLTSSSSAMAGVDISAGDEINGSDEFDPRSMNQSEKKVLSRTESRSLFEFKCVPLYGVTSICGRRPEMEDSVSTIPRFLQVSSSSLLDGRVTNGFNPHLSAHFFGVYDGHDGSQVANYCRERMHLALTEEIVKEKPEFCDGDTWQEKWKKALFNSFMRVDSEIETVAHAPETVGSTSVVAVVFPTHIFVANCGDSRAVLCRGKTPLALSVDHKPDRDDEAARIEAAGGKVIRWNGARVFGVLAMSRSIGDRYLKPSVIPDPEVTSVRRVKEDDCLILASDGLWDVMTNEEVCDLARKRILLWHKKNAMAGEALLPAEKRGEGKDPAAMSAAEYLSKMALQKGSKDNISVVVVDLKGIRKFKSKSLN [G168D], for which the “effect of a mutation on the interaction” value is given as “disrupting interaction”.
